Measured values reported in patent publication US20220218805A1 (UNIVERSITY OF BRITISH COLUMBIA, published 2022).
Ends that are not written are not given here.

T1: (3,1) cyclo(CGGGKLDFG) (SEQ ID NO: 15) conjugated to BSA (not fully specified (residue 1); printed as cyclo(CGGGKLDFG); also: conjugated to BSA (maleimide coupling))
T1 construct: Screening antigen of the ELISA; also called KLDF (3,1); cyclic peptide-BSA
T1 peptide: cyclo(CGGGKLDFG)

T2: (3,2) cyclo(CGGGKLDFGG) (SEQ ID NO: 16) conjugated to BSA (not fully specified (residue 1); printed as cyclo(CGGGKLDFGG); also: conjugated to BSA (maleimide coupling))
T2 construct: Screening antigen of the ELISA; also called KLDF (3,2); cyclic peptide-BSA
T2 peptide: cyclo(CGGGKLDFGG)

T3: (4,1) cyclo(CGGGGKLDFG) (SEQ ID NO: 19) conjugated to BSA (not fully specified (residue 1); printed as cyclo(CGGGGKLDFG); also: conjugated to BSA (maleimide coupling))
T3 construct: Screening antigen of the ELISA; also called KLDF (4,1); cyclic peptide-BSA
T3 peptide: cyclo(CGGGGKLDFG)

T4: Linear CGGGKLDFG (SEQ ID NO: 15) conjugated to BSA (also: conjugated to BSA)
T4 construct: Screening antigen of the ELISA; also called corresponding linear peptide (3,1); linear peptide-BSA
T4 peptide: CGGGKLDFG

T5: Linear CGGGKLDFGG (SEQ ID NO: 16) conjugated to BSA (also: conjugated to BSA)
T5 construct: Screening antigen of the ELISA; also called corresponding linear peptide (3,2); linear peptide-BSA
T5 peptide: CGGGKLDFGG

T6: Linear CGGGGKLDFG (SEQ ID NO: 19) conjugated to BSA (also: conjugated to BSA)
T6 construct: Screening antigen of the ELISA; also called corresponding linear peptide (4,1); linear peptide-BSA
T6 peptide: CGGGGKLDFG


Columns and labels:
[1] = molecular target: T1, (3,1) cyclo(CGGGKLDFG) (SEQ ID NO: 15) …; assay: indirect ELISA, hybridoma supernatant on cyclic peptide-BSA
Protocol: (§1) Tissue culture supernatants from the hybridomas were tested by indirect ELISA on screening antigen (cyclic peptide-BSA and linear peptide-BSA) and were probed for both IgG and IgM antibodies using a Goat anti-IgG/IgM(H&L)-HRP secondary antibody and developed with TMB substrate.

[2] = molecular target: T2, (3,2) cyclo(CGGGKLDFGG) (SEQ ID NO: 16) …; assay: indirect ELISA on other cyclic peptide-BSA conjugates
[3] = molecular target: T3, (4,1) cyclo(CGGGGKLDFG) (SEQ ID NO: 19) …; assay: as above
tau oligomers (SynAging) [4] = molecular target: T7, tau oligomers (SynAging) (UniProt P10636-8 1-441, limits assumed); assay: SPR, oligomer RU / monomer RU (reference: tau monomers)
T7 construct: also called misfolded oligomeric tau polypeptide
T7 sequence (P10636 other isoform, or with tags, fused parts or gaps limits assumed): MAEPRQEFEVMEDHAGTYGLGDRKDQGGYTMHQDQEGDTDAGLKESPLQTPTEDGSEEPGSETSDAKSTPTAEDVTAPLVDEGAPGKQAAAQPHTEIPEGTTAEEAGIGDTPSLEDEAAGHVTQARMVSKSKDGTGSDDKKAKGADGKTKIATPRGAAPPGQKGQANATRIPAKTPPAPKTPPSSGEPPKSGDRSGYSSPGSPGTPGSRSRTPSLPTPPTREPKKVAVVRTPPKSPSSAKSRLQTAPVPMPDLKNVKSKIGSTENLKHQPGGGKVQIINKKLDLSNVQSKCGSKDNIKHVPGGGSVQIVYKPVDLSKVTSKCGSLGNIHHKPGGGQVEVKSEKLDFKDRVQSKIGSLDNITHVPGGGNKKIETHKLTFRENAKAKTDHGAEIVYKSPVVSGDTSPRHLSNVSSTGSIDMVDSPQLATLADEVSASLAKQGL
Protocol: (§2) Antibodies were tested for their ability to bind monomeric tau polypeptide as well as misfolded oligomeric tau polypeptide using surface plasmon resonance. Surface plasmon resonance measurements were performed using a Molecular Affinity Screening System (Sierra Sensors, Hamburg, Germany). Tau monomers (Stressmarq, Victoria, BC, Canada) or tau oligomers (SynAging, Vandoeuvre-les-Nancy, France) were immobilized on high amine capacity sensorchips and hybridoma supernatants (50% dilution) were injected over the immobilized surfaces at 10 μl/minute for 4 min followed by a 5 min dissociation phase. Mouse IgG1 was used as a negative control and a pan-tau reactive antibody was used as a positive control. The reverse orientation was used for purified antibodies: the mAbs were immobilized covalently on the surface of sensorchips (8000-12000 RUs) and serial dilutions of tau monomers or oligomers were injected over the surface.

tau oligomers (SynAging) [5] = molecular target: T7, tau oligomers (SynAging); assay: SPR, hybridoma supernatant over immobilized tau oligomers
Protocol: as §2

[6] = molecular target: T8, tau monomers (Stressmarq) (UniProt P10636-8 1-441, limits assumed); assay: SPR, hybridoma supernatant over immobilized tau monomers
T8 construct: also called monomeric tau polypeptide
T8 sequence (P10636 other isoform, or with tags, fused parts or gaps limits assumed): as above
Protocol: as §2

[7] = molecular target: T4, Linear CGGGKLDFG (SEQ ID NO: 15) …; assay: indirect ELISA, hybridoma supernatant on linear peptide-BSA
Protocol: as §1

[8] = molecular target: T2, (3,2) cyclo(CGGGKLDFGG) (SEQ ID NO: 16) …; assay: indirect ELISA, hybridoma supernatant on cyclic peptide-BSA
Protocol: as §1

[9] = molecular target: T5, Linear CGGGKLDFGG (SEQ ID NO: 16) …; assay: indirect ELISA, hybridoma supernatant on linear peptide-BSA
Protocol: as §1

[10] = molecular target: T3, (4,1) cyclo(CGGGGKLDFG) (SEQ ID NO: 19) …; assay: indirect ELISA, hybridoma supernatant on cyclic peptide-BSA
Protocol: as §1

[11] = molecular target: T6, Linear CGGGGKLDFG (SEQ ID NO: 19) …; assay: indirect ELISA, hybridoma supernatant on linear peptide-BSA
Protocol: as §1

Row | OD [1] [OD] | binding result [2] | binding result [3] | Ratio (O/M) (tau oligomers (SynAging) [4]) | binding response (RU) (tau oligomers (SynAging) [5]) | binding response (RU) [6] [RU] | OD [7] [OD] | OD [8] [OD] | OD [9] [OD] | OD [10] [OD] | OD [11] [OD] | Binder
1 |  |  |  | 2.9 | 14.5 | 5 |  | 1.74 | 0.784 |  |  | Ab12 (clone 10B10) (antibody, V domains shown, tested as hybridoma supernatant; kappa light chain; also called 10B10.1) VH: QIQLVQSGPELKKPGETVKISCKASGYTFTNFGMNWVKQAPGKGLKWMGWINTFTGEPTYVDDFKGRFAFSLETSATTAYLQINNLKNEDTATYFCARSPGRVYTLDYWGQGTSVTVSS VL: DIVMSQSPSSLAVSAGEKVTMSCKSSQSLLNSRTRKNYLAWYQQKPGQSPKLLIYWASTRESGVPDRFTGSGSGTDFTLTISSVQAEDLAVYYCKQSYNLYTFGGGTKLEIK
2 |  |  |  | 2.6 | 18 | 6.9 |  | 1.7 | 0.788 |  |  | Ab14 (clone 10D4) (antibody, V domains shown, tested as hybridoma supernatant; kappa light chain) VH: DVQLQESGPGLVKPSQSLSLTCTVTGFSITSDYAWNWIRQFPGNKLEWMGFIRYSGNTRFNPSLKGRGSITRDTSKNQFFLQLNSVTTEDTATYYCASTLEDSYWYFDVWGAGTTVTVSS VL: DVLMTQTPLSLPVSLGDQASISCRSSQSIVHTNGNTYLEWYLQKPGQSPKLLIYKVSNRFSGVPDRFSGSGSGTDFTLKISRVEAEDLGVYYCFQGSHVPLTFGAGTKLELK
3 |  |  |  | 3.1 | 14.7 | 4.8 |  | 1.29 |  |  |  | Ab13 (clone 10C9) (antibody, V domains shown, tested as hybridoma supernatant; kappa light chain) VH: EVQLQQSGTVLARPGASVKMSCKASGYRFTSYWMYWVKQRPGQGLEWIGAIYPGNSDTIYNQRFKGKATLTAVTSASTAYMELSSLANEDSAVYFCTRPYFDSWGQGTTLTVSS VL: not shown
4 |  |  |  | 1.3 | 269 | 201 |  |  |  | 1.79 | 1.61 | Ab3 (clone 2C7) (antibody, V domains shown, tested as hybridoma supernatant; kappa light chain) VH: QVTLKESGPGILKPSQTLSLTCSFSGFSLSTSGMGVGWIRQPSGKGLEWLAHIWWDDDKYYNPSLKNRLTISKDTSRNQVFLKITSVDTADTATYYCVRSIYYYDSSPYYYVMDYWGQGTSVTVSS VL: DIVMTQSHKFMSTSVGDRVSITCKASQDVSIAVAWYQQKPGQSPKLLIYSASYRNTGVPDRFTGSGSGTDFTFTISSVQAEDLAVYYCQQHYSSPLTFGAGTKLELK

Continued, binder first:

Row | Binder | OD [1] [OD] | binding result [2] | binding result [3] | Ratio (O/M) (tau oligomers (SynAging) [4]) | binding response (RU) (tau oligomers (SynAging) [5]) | binding response (RU) [6] [RU] | OD [7] [OD] | OD [8] [OD] | OD [9] [OD] | OD [10] [OD] | OD [11] [OD]
5 | Ab29 (clone 12D11) (antibody, V domains shown, tested as hybridoma supernatant; kappa light chain) VH: QIQLVQSGPELKKPGETVKISCKASGYTFTNYGMNWVKQAPGKGLKWMGWINTYSGEPTYVDDFKGRFAFSLETSASTAYLQINNLKNEDMATYFCARSPGAYYTLDYWGQGTSVTVSS VL: DIVMSQSPSSLAVSAGEKVTMSCKSSQSLLNSRTRKNYLAWYQQKPGQSPKLLIYWASTRESGVPDRFTGSGSGTDFTLTISSVQAEDLAVYYCKQSYNLYTFGGGTKLEIK | 1.35 | no binding | no binding | 2.1 | 6.2 | 3 |  |  |  |  | 
6 | Ab23 (clone 8E11) (antibody, V domains shown, kappa light chain; also called 8E11.1) VH: QVQLQQSGAELVRPGSSVKISCKASGYAFSSYWMNWVKQRPGQGLEWIGQIYPGDGDTNYNGKFKGKATLTADKSSSTAYMQLSSLTSEDSAVYLCASQIYDGYYTFTYWGQGTLVTVSA VL: DIVMSQSPSSLAVSAGEKVTMSCKSSQSLLNSRTRKNYLAWYQQKPGQSPKLLIYWASTRVSGVPDRFTGSGSGTDFTLTISSVQAEDLAVYYCKQSYNLWTFGGGTKLEIK | 1.19 |  |  | 2.2 | 10.2 | 4.6 | 1.69 |  |  |  | 
7 | Ab10 (clone 9D12) (antibody, V domains shown, kappa light chain) VH: QIQLVQSGPELKKPGETVKISCKASGYTFTNYGMNWVKQAPGKGLKWMGWINTYTGEPTYTDDFKGRFAFSLETSASTAYLQINNLKNEDTATYFCGRGIRDYYTMDYWGQGTSVTVSS VL: DIVMSQSPSSLAVSAGEKVTMSCKSSQSLLNNRTRKNYLAWYQQKPGQSPKLLIYWASTRESGVPDRFTGSGSGTDFTLTISSVQAEDLAVYYCKQSYNLYTFGGGTKLEIK |  |  |  | 2.7 | 14 | 5.2 |  | 1.6 | 0.78 |  | 
8 | Ab15 (clone 10D9) (antibody, V domains shown, tested as hybridoma supernatant; kappa light chain) VH: QVQLQQSGAELVKPGASVKLSCKASGYTFTSYYMFWVKQRPGQGLEWIGEINPSNGGSNFNEKFKSKATLTVDKSSSTAYMQLSSLTSEDSAVYYCTRGAFWGQGTLVTVSA VL: not shown |  |  |  | 3.7 | 10.9 | 3 |  | 1.58 | 0.774 |  | 
9 | Ab11 (clone 9E4) (antibody, V domains shown, kappa light chain; The clone name 9E4 is also printed for Ab27; also called 9E4.1) VH: DVQVQESGPGLVKPSQSLSLTCTVTGYSITSDYAWTWIRQFPGNKLEWMGYISYSGSTSYNPSLKSRLSITRDTSKNQFFLQLNSVTTEDTATYYCAAYYRYGLAYFAYWGQGTLVTVSA VL: not shown |  |  |  | 2.6 | 17 | 6.5 |  | 1.64 | 0.232 |  | 
10 | Ab21 (clone 2C6) (antibody, V domains shown, tested as hybridoma supernatant; kappa light chain; also called 2C6.1) VH: EVQLQQSGAELVKPGASVKLSCTASGFNIKDTHMHWVKQRPEQGLEWIGKIDPSNGNTQYDPKFQGKATITADTSSNTAYLQLSSLTSEDTAVYYCATGFAYWGQGTLVTVSA VL: DIQMTQSPASLSASVGETVTITCRASGNIHNYLAWYQQKQGKSPQLLVYNAKTLADGVPSRFSGSGSGTQYSLKINSLQPEDFGSYYCQHFWYTPWTFGGGTKLEIK | 1.21 |  |  | 1.9 | 6.6 | 3.5 |  |  |  |  | 
